Substitutions are numbered along the chain they refer to. Like-named read-outs stand apart in the source and are kept apart here. One block for each binder: values may come before it.
Experiments:
Canine [1] = target: T1, Canine (limits assumed); test: ELISA, antibody titrated on cMet of the named species, OD 450 nm
T1 construct: also called canine cMet; dog cMET
T1 receptor: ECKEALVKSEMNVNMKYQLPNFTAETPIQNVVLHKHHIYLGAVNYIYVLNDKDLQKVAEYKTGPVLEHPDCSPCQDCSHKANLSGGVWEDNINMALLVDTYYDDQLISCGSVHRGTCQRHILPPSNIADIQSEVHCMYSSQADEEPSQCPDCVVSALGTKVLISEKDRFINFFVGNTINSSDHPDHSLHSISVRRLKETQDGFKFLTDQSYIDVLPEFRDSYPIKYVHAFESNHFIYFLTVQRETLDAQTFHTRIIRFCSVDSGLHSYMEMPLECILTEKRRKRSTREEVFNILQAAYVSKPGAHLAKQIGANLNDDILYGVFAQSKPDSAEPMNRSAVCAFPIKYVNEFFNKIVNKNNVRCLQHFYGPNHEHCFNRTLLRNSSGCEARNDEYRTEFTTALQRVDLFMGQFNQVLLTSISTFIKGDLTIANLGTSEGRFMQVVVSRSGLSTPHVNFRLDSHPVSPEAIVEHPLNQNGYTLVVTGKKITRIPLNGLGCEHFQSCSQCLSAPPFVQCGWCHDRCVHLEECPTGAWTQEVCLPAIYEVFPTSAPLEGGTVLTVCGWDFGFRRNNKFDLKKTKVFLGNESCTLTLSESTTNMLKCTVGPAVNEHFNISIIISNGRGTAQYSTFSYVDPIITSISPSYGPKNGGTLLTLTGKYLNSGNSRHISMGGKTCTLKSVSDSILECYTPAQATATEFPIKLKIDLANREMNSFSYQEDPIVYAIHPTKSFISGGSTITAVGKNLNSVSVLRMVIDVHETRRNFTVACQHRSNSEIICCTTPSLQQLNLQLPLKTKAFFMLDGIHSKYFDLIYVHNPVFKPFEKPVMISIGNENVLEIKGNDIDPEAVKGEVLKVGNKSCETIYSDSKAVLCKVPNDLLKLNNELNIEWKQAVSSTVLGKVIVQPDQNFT

rat cMET [2] = target: T2, rat cMET (rat, UniProt P97523 25-935, limits assumed); test: as above
T2 construct: ELISA antigen; also called rMET

mouse cMET [3] = target: T3, mouse cMET (mouse, UniProt P16056 25-931, limits assumed); test: as above
T3 construct: ELISA antigen

Canine [4] = target: T1, Canine; test: as above
rat cMET [5] = target: T2, rat cMET; test: as above; remark: listed apart in the source
mouse cMET [6] = target: T3, mouse cMET; test: as above; remark: listed apart in the source
rat cMET [7] = target: T2, rat cMET; test: ELISA on rat cMET, ratio to parental P3D12
Target sequence in this assay (P97523 25-935 limits assumed): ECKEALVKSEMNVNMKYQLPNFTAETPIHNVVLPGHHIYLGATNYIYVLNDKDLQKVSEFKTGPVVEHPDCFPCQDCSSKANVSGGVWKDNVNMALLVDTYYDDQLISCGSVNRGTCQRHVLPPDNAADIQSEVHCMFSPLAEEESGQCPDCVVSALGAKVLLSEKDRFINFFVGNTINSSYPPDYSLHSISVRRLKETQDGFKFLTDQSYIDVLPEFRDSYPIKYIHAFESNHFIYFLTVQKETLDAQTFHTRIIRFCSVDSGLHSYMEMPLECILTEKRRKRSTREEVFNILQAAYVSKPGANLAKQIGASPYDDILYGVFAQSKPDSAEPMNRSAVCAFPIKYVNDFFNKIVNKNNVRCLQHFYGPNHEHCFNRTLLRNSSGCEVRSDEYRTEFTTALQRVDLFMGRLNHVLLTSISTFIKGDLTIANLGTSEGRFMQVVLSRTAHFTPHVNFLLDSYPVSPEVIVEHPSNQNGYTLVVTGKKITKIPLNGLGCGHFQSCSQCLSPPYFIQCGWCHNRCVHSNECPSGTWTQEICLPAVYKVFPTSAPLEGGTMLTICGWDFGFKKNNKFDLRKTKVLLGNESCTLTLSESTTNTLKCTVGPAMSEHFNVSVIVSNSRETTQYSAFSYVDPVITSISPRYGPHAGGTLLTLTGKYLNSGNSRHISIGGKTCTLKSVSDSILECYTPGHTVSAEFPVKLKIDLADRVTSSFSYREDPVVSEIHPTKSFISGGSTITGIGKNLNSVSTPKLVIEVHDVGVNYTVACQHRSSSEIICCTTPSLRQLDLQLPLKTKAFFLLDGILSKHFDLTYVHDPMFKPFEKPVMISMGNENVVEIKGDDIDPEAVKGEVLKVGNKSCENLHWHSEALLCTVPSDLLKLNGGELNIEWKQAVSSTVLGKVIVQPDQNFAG

human cMET = target: T4, human cMET (human, UniProt P08581 25-932, limits assumed); test: ELISA on human cMET, ratio to parental P3D12
T4 construct: also called hMET

Canine [8] = target: T1, Canine; test: ELISA, antibody titrated on cMet of the named species, OD 450 nm
mouse cMET [9] = target: T3, mouse cMET; test: as above; remark: listed apart in the source
Canine [10] = target: T1, Canine; test: as above
mouse cMET [11] = target: T3, mouse cMET; test: as above; remark: listed apart in the source
Canine [12] = target: T1, Canine; test: as above
mouse cMET [13] = target: T3, mouse cMET; test: as above; remark: listed apart in the source
[14] = target: human cMET-Fc fusion protein (human) [IgG part: P01857]; test: SPR with hMet-Fc

T4 sequence (P08581 25-932 limits assumed): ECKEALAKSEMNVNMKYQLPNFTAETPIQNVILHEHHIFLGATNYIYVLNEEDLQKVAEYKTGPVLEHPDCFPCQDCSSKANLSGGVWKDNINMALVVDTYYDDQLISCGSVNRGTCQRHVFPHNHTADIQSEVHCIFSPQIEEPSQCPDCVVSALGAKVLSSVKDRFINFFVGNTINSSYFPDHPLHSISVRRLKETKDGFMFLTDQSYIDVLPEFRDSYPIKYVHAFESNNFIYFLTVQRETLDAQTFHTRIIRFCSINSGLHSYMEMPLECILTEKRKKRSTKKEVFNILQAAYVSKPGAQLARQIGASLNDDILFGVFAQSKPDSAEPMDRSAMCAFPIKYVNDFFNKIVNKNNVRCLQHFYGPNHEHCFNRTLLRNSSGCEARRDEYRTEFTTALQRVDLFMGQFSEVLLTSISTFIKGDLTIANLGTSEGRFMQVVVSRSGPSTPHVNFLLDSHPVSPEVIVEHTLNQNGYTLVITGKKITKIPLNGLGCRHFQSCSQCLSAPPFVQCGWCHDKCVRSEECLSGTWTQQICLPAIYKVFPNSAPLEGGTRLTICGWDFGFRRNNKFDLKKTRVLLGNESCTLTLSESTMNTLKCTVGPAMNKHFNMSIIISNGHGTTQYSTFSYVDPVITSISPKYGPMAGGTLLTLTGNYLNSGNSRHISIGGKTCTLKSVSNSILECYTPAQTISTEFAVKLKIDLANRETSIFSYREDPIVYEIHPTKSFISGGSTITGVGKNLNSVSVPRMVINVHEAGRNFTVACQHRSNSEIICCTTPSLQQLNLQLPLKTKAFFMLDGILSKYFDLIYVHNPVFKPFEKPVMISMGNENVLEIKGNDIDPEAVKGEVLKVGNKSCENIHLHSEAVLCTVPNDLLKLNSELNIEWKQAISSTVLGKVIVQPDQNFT

B2: F6AP8E2 (antibody, V domains shown)
VH: EVQLQQSGAELVRPGALVKLSCKASGFNINDYFMHWVKQRPEQGLEWIGWIDPENGNTIYDPKFQGKASITADTSSNTAYLQLSSLTSEDTAVYYCARGGNYLRESYYYAMDYWGQGTSVTVSS
VL: DIVMTQSPKSMSMSVGERVTLSCKASENVGTYVSWYQQKPDQSPKLLIYGASNRYTGVPDRFTGSGSATDFTLTISSVQAEDLADYHCGQSYSYPLTFGAGTKLELKR
notes: Mouse monoclonal antibody
- binding result (Canine [4]): no binding (tested: 10 ug/mL (axis value 1, log10))
- binding result (rat cMET [5]): no binding (tested: 10 ug/mL (axis value 1, log10))
- binding result (mouse cMET [6]): no binding (tested: 10 ug/mL (axis value 1, log10))

B3: G2akc (antibody, V domains shown)
VH: QVQLVQSGAEVKKPGASVKVSCKASGYTFTSYWMHWVKQAPGQGLDWMGYIKPSTDNTEYAQKFQGRVTLTADKSTSTAYMELSSLRSEDTAVYYCARSYGNYPLMDYWGQGTTVTVSS
VL: QIVLTQSPATLSLSPGERATLSCSASSSVTSNYLYWYQQKPGSSPRLLIYSTSNLASGVPARFSGSGSGTSYTLTISRLEPEDFASYFCHQWSSYPPTFGSGTKLEIKR
notes: As G2aka; also called humanized P3D12, HC VH-abb/sdr, LC cdr
- ELISA rMET vs parental (rat cMET [7]): 0.7
- ELISA hMET vs parental (human cMET): 1.3

B5: F6B1P3D12 (antibody, V domains shown)
VH: QVQLQQSGAELAKPGASVKMSCRASGYTFTSYWMHWVKQRPGQGLDWIGYIKPSTDNTEYNQKFKDKATLTADKSSSTAYMQLSSLTSEDSAVYYCARSYGNYPLMDYWGQGTSVTVSS
VL: QIVLTQSPAIMSASPGEKVTLTCSASSSVTSNYLYWYQQKPGSSPKLWIYSTSNLASGVPARFSGSGSGTSYSLTISSMEAEDAASYFCHQWSSYPPTFGSGTKLEIKR
notes: Mouse monoclonal antibody from a hybridoma; also called Mouse P3D12; P3D12(mouse)
- binding result (Canine [8]): no binding (tested: 10 ug/mL (axis value 1, log10))
- binding result (mouse cMET [9]): no binding (tested: 10 ug/mL (axis value 1, log10))

B6: F6B1P1E2 (antibody, V domains shown)
VH: B5 VH with R23K, D46E, K52N, N57Y, S77T, A97V
VL: B5 VL with T30S, Q38H, A61V
notes: Mouse monoclonal antibody
- binding result (Canine [10]): no binding (tested: 10 ug/mL (axis value 1, log10))
- binding result (mouse cMET [11]): no binding (tested: 10 ug/mL (axis value 1, log10))

B7: F6BP2D4 (antibody, V domains shown)
VH: B5 VH with R23K, D46E, K52N, N57Y, T58I, D73G, Y103F
VL: B5 VL with T30S, A61V
notes: Mouse monoclonal antibody
- binding result (Canine [12]): no binding (tested: 10 ug/mL (axis value 1, log10))
- binding result (mouse cMET [13]): no binding (tested: 10 ug/mL (axis value 1, log10))

B9: G2vkc (antibody, V domains shown)
VH: B5 VH with Q5V, L11V, R23K, R40A, S76T, T87R, S91T, S114T
VL: B3 VL
notes: As G2aka; also called humanized P3D12, HC VH-ven, LC cdr
- ELISA rMET vs parental (rat cMET [7]): 1.9
- ELISA hMET vs parental (human cMET): 1.1

B10: G2akv (antibody, V domains shown)
VH: B3 VH
VL: B3 VL with L11M, L13A, A19V, L48W, L79M, F84A
notes: As G2aka; reported insoluble in PBS; also called humanized P3D12, HC VH-abb/sdr, LC ven
- ELISA rMET vs parental (rat cMET [7]): 1.3
- ELISA hMET vs parental (human cMET): 1.8

B11: G2vka (antibody, V domains shown)
VH: B5 VH with Q5V, L11V, R23K, R40A, S76T, T87R, S91T, S114T
VL: B3 VL with S24R, S27Q, S71D
notes: As G2aka; also called humanized P3D12, HC VH-ven, LC abb/sdr
- ELISA rMET vs parental (rat cMET [7]): 2.7
- ELISA hMET vs parental (human cMET): 0.9

More lines, now with the values ahead:

- binding result (Canine [1]): no binding (tested: 10 ug/mL)
- binding result (rat cMET [2]): no binding (tested: 10 ug/mL)
- binding result (mouse cMET [3]): no binding (tested: 10 ug/mL)
B1: F5P5B9 (antibody, V domains shown)
VH: QVQLKESGPGLVAPSQSLSITCTVSGFSLTNYGVNWVRQPPGKGLEWLGLIWGGGDTDYNSALKSRLSISKDNSKSQVFLKMETNSLQTDDTARYYCARDYYGFDYWGQGTTLTVSS
VL: DVLMTQTPLSLPVSLGDQASISCRSSQTIVHGTGNTYLEWYLQKPGQSPKLLIYKVSNRFSGVPDRFSGSGSGTDFTLKISRVEAEDLGVYYCFQGSHVPYTFGGGTKLEIKR
notes: Mouse monoclonal antibody

- ELISA rMET vs parental (rat cMET [7]): 1
- ELISA hMET vs parental (human cMET): 1.1
B4: G2vkf (antibody, V domains shown)
VH: B5 VH with Q5V, L11V, R23K, R40A, S76T, T87R, S91T, S114T
VL: B3 VL with T10I, R46K, R78S, P81A, F84A
notes: As G2aka; also called humanized P3D12, HC VH-ven, LC fra

- ELISA rMET vs parental (rat cMET [7]): 1.6
- ELISA hMET vs parental (human cMET): 1.8
B8: G2vkv (antibody, V domains shown)
VH: B5 VH with Q5V, L11V, R23K, R40A, S76T, T87R, S91T, S114T
VL: B3 VL with L11M, L13A, A19V, L48W, L79M, F84A
notes: As G2aka; reported insoluble in PBS; also called humanized P3D12, HC VH-ven, LC ven

- Kd [14]: 0.7 nM
B12: ABF46 (antibody, from another filing, V domains shown)
VH: EVKLVESGGGLVQPGGSLRLSCATSGFTFTDYYMSWVRQPPGKALEWLGFIRNKANGYTTEYSASVKGRFTISRDNSQSILYLQMDTLRAEDSATYYCARDNWFAYWGQGTLVTVSA
VL: DILMTQSPSSLTVSAGEKVTMSCKSSQSLLASGNQNNYLAWHQQKPGRSPKMLIIWASTRVSGVPDRFIGSGSGTDFTLTINSVQAEDLAVYYCQQSYSAPLTFGAGTKLELKR
